Publication PMC7458460

Biological target: CN391 (CNA_(1–391)/CNB_(1–170)) (UniProt Q08209)
Assay: ITC

Sequence of RCAN1_(core) WT (residues 128 to 164) (P53805 183-219): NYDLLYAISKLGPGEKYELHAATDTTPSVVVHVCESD
Sequence of CN391 (CNA_(1–391)/CNB_(1–170)) (Q08209 1-391, chain 1 of 2): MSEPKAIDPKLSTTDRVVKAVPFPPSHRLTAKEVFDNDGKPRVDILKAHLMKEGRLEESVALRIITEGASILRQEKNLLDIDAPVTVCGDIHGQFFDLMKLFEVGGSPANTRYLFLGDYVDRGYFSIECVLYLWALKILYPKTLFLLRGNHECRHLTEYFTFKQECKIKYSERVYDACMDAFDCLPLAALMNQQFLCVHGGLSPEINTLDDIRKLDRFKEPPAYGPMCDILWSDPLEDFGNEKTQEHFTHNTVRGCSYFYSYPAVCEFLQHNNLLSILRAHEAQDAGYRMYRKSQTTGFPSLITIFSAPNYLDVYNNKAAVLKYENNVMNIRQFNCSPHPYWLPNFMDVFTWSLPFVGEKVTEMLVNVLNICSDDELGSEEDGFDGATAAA
Sequence of CN391 (CNA_(1–391)/CNB_(1–170)) (P63098 whole entry, chain 2 of 2, further chain): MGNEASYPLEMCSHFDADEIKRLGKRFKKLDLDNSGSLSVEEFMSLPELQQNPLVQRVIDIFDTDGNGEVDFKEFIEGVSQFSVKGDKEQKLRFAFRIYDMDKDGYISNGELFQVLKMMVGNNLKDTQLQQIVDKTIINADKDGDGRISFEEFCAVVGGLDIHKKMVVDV

Kd: 161 nM
dH: -18.8 kcal/mol
Substance: RCAN1_(core) WT (residues 128 to 164) (from UniProt P53805-2 128-164) (domain or fragment)
